Measured values: publication PMC4110399 (Current Biology, 2014)

B1: FAM21 R20-21 fragment (domain or fragment)
chain: KSKKKVEAKSIFDDDMDDIFSTGIQAKTTKPKSRSAQAAPEPRFEHKVSNIFDDPLNAFGGQ
modifications: Limits not printed (construct is in cited ref 16); taken as the C-terminal tail spanning LFa motifs 20-21. The LFa 20/21 positions are recalled from the entry's annotation and not shown in the …
B2: FAM21 R20-21 fragment (domain or fragment)
chain: B1 chain

How the values were obtained:
[1] = molecular target: recombinant VPS35/VPS29 complex (wild type) (UniProt Q96QK1 1-796; Q9UBQ0 1-182); assay: ITC; FAM21 R20-21 titrated into the VPS35/VPS29 complex; three experiments for each complex with two independently prepared protein samples; global fitting with SEDPHAT; details: both partners purified
[2] = molecular target: recombinant VPS35(D620N)/VPS29 complex (UniProt Q96QK1 1-796; Q9UBQ0 1-182, D620N); assay: as above; details: both partners purified

| Binder | Kd [1] [µM] | stoichiometry N [1] | Kd [2] [µM] |
| --- | --- | --- | --- |
| B1 | 2.4 | 2 R20-21 per VPS35/VPS29 (by the order of the sentence) |  |
| B2 |  |  | 4.6 |
